The values that follow come from PMC11417369, “DNA sequence and chromatin differentiate sequence-specific transcription factor binding in the human malaria parasite Plasmodium falciparum”.

T1: HDP1 homeodomain-like (Plasmodium falciparum, UniProt Q8IKH4 2990-3078)
T1 sequence: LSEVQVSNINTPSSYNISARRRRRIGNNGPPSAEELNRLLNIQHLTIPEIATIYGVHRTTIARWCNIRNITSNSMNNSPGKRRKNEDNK

B1: GTGCAC_site10480 (dsDNA)
DNA 1: GGTATTTATGGACGCGTGCACACACATATGAACAAA
DNA 2: TTTGTTCATATGTGTGTGCACGCGTCCATAAATACC
B2: GTGCAC_site9469 (dsDNA)
DNA 1: ACAAAAAAAAACGTGGTGCATTAATAATATTGTATA
DNA 2: TATACAATATTATTAATGCACCACGTTTTTTTTTGT
B3: GTGCAC_site10318 (dsDNA)
DNA 1: ATATATATATATATAGTGCAAATATCTTCTTTATAA
DNA 2: TTATAAAGAAGATATTTGCACTATATATATATATAT
B4: GTGCAC_site10737 (dsDNA)
DNA 1: TAATTTCTTTAGGGGGTGCTTTTATAGTTTTTATTA
DNA 2: TAATAAAAACTATAAAAGCACCCCCTAAAGAAATTA
B5: GTGCAC_site10728 (dsDNA)
DNA 1: TCATACATGGTGTGTTTGCACTTGACCTATATTCAT
DNA 2: ATGAATATAGGTCAAGTGCAAACACACCATGTATGA
B6: GTGCAC_site10061 (dsDNA)
DNA 1: AAAAAAAAAAAAAGAGTGCAAACTATGATAATTTAA
DNA 2: TTAAATTATCATAGTTTGCACTCTTTTTTTTTTTTT
B7: GTGCAC_site10509 (dsDNA)
DNA 1: ACAACAATTCACTTGATGCACTAACCAAAAAAATAA
DNA 2: TTATTTTTTTGGTTAGTGCATCAAGTGAATTGTTGT
B8: GTGCAC_site10231 (dsDNA)
DNA 1: TTCCAAGAAATAATAGTGCATTATTCATTTTAATAA
DNA 2: TTATTAAAATGAATAATGCACTATTATTTCTTGGAA
B9: GTGCAC_site10546 (dsDNA)
DNA 1: ATGAAATATTTATTTGTGCACTTAATTTGTTGGAAA
DNA 2: TTTCCAACAAATTAAGTGCACAAATAAATATTTCAT
B10: GTGCAC_site10605 (dsDNA)
DNA 1: GAAGTAGATGGAAAAGTGCACTGTAATGGTTATATT
DNA 2: AATATAACCATTACAGTGCACTTTTCCATCTACTTC
B11: GTGCAC_site10399 (dsDNA)
DNA 1: CATATTATTATTTTGGTGCATACTTATATATATTTT
DNA 2: AAAATATATATAAGTATGCACCAAAATAATAATATG
B12: GTGCAC_site9450 (dsDNA)
DNA 1: ATAACAAAATGAAGAGTGCATTACCAAGTGGGTAAA
DNA 2: TTTACCCACTTGGTAATGCACTCTTCATTTTGTTAT
B13: GTGCAC_site9416 (dsDNA)
DNA 1: TTTCAAAAAAATAATGTGCACATTAGAAAATAAATA
DNA 2: TATTTATTTTCTAATGTGCACATTATTTTTTTGAAA
B14: GTGCAC_site10762 (dsDNA)
DNA 1: TGTAAAATATAAAAAGTGCATTTCTTTTAATATGAT
DNA 2: ATCATATTAAAAGAAATGCACTTTTTATATTTTACA
B15: GTGCAC_site9631 (dsDNA)
DNA 1: AAAAATAATCATTAGGTGCAAAAAATATATATATAT
DNA 2: ATATATATATATTTTTTGCACCTAATGATTATTTTT
B16: GTGCAC_site10212 (dsDNA)
DNA 1: TATATATATATATATGTGCACATATATATGATATTA
DNA 2: TAATATCATATATATGTGCACATATATATATATATA
B17: GTGCAC_site10156 (dsDNA)
DNA 1: ACCATATAAAGTTAGGTGCATTTGTATGTATCTTAC
DNA 2: GTAAGATACATACAAATGCACCTAACTTTATATGGT
B18: GTGCAC_site9435 (dsDNA)
DNA 1: ATATTTTGTTTTATAGTGCACATGGGCATATATTAA
DNA 2: TTAATATATGCCCATGTGCACTATAAAACAAAATAT
B19: GTGCAC_site10533 (dsDNA)
DNA 1: CGTAAATTTTTCTAAGTGCATGTTAATTTTTCAATT
DNA 2: AATTGAAAAATTAACATGCACTTAGAAAAATTTACG
B20: GTGCAC_site10319 (dsDNA)
DNA 1: TCATTTTAAATATGTGTGCACGTTATAATTTACACA
DNA 2: TGTGTAAATTATAACGTGCACACATATTTAAAATGA
B21: GTGCAC_site10120 (dsDNA)
DNA 1: AAAAACAAACTGTGCATGCACCAAAAAAAAAAAAAA
DNA 2: TTTTTTTTTTTTTTGGTGCATGCACAGTTTGTTTTT
B22: GTGCAC_site10127 (dsDNA)
DNA 1: ACATATAAATATTGTGTGCACACACATAATATATAT
DNA 2: ATATATATTATGTGTGTGCACACAATATTTATATGT
B23: GTGCAC_site9715 (dsDNA)
DNA 1: TTTTTTAAATTGGTAGTGCAATATGATTGAACAAAA
DNA 2: TTTTGTTCAATCATATTGCACTACCAATTTAAAAAA
B24: GTGCAC_site9657 (dsDNA)
DNA 1: CATAATTTAAAAAAGGTGCAAAATGGATAATATATA
DNA 2: TATATATTATCCATTTTGCACCTTTTTTAAATTATG
B25: GTGCAC_site9948 (dsDNA)
DNA 1: CTTAAATTAATTTGGGTGCATATATTTGTACACATT
DNA 2: AATGTGTACAAATATATGCACCCAAATTAATTTAAG
B26: GTGCAC_site9698 (dsDNA)
DNA 1: GACTTTTCATTTATAGTGCAAGTTTTTTTTTTTTTT
DNA 2: AAAAAAAAAAAAAACTTGCACTATAAATGAAAAGTC
B27: GTGCAC_site10104 (dsDNA)
DNA 1: CTTATAAGAATACTAGTGCACATAATTTAACGAAAA
DNA 2: TTTTCGTTAAATTATGTGCACTAGTATTCTTATAAG
B28: GTGCAC_site9646 (dsDNA)
DNA 1: TGTATATATATCTCAGTGCATTGCAAATTAAAAATT
DNA 2: AATTTTTAATTTGCAATGCACTGAGATATATATACA
B29: GTGCAC_site10244 (dsDNA)
DNA 1: ATCCGCTGCCTTTTGGTGCAGAACATAATCATGTAA
DNA 2: TTACATGATTATGTTCTGCACCAAAAGGCAGCGGAT
B30: GTGCAC_site10384 (dsDNA)
DNA 1: TTTTCTTGGTTCAGTGTGCACTTATATATATATATA
DNA 2: TATATATATATATAAGTGCACACTGAACCAAGAAAA
B31: GTGCAC_site10461 (dsDNA)
DNA 1: TTTATACATACATTCGTGCACATACGTATAACATAT
DNA 2: ATATGTTATACGTATGTGCACGAATGTATGTATAAA
B32: GTGCAC_site9397 (dsDNA)
DNA 1: TGTGTTAGCAAAAAAGTGCACAGGGAAAAAAAAATA
DNA 2: TATTTTTTTTTCCCTGTGCACTTTTTTGCTAACACA
B33: GTGCAC_site10676 (dsDNA)
DNA 1: TTTTGTTATTTTTTAGTGCATATAAAGGTTGTTAAG
DNA 2: CTTAACAACCTTTATATGCACTAAAAAATAACAAAA
B34: GTGCAC_site9634 (dsDNA)
DNA 1: AAATTGAGACAACAGGTGCATATAAATATACAGTGT
DNA 2: ACACTGTATATTTATATGCACCTGTTGTCTCAATTT
B35: GTGCAC_site10652 (dsDNA)
DNA 1: ATATATATATTTTGGTAGCACCTCCTTTTTTTTTTT
DNA 2: AAAAAAAAAAAGGAGGTGCTACCAAAATATATATAT
B36: GTGCAC_site10269 (dsDNA)
DNA 1: TGTGTATATATGCTGGTGCAACTTTAAAAAATAATC
DNA 2: GATTATTTTTTAAAGTTGCACCAGCATATATACACA
B37: GTGCAC_site10550 (dsDNA)
DNA 1: TAAACGTTAGTATGTGTGCACATTAGTAATTTAAAA
DNA 2: TTTTAAATTACTAATGTGCACACATACTAACGTTTA
B38: GTGCAC_site10696 (dsDNA)
DNA 1: AATGACTACATAATAGTGCAATATTAAAGAAAATTA
DNA 2: TAATTTTCTTTAATATTGCACTATTATGTAGTCATT
B39: GTGCAC_site10425 (dsDNA)
DNA 1: CATGAGGTATAAAAGGTGCAAATTAATGAGAACATT
DNA 2: AATGTTCTCATTAATTTGCACCTTTTATACCTCATG
B40: GTGCAC_site9886 (dsDNA)
DNA 1: ATTTATTTATATTTAGTGCAATACTATTTTTAAATA
DNA 2: TATTTAAAAATAGTATTGCACTAAATATAAATAAAT
B41: GTGCAC_site9492 (dsDNA)
DNA 1: GTCAACAAGAATTAAGTGCATAATTTTTTATTAAAT
DNA 2: ATTTAATAAAAAATTATGCACTTAATTCTTGTTGAC

In the series the target is T1, HDP1 homeodomain-like. As to the kind of experiment: gcPBM; about 25 ug protein; PBS, 1% milk, 0.2 mg/ml BSA, salmon testes DNA, 0.03% Triton X-100. The note with it: tags: N-terminal GST (pGEX-4T-1), kept; chain copies: 2; label: surface-attached array probe.
With B1, the binding signal is 10.4 ln median PBM intensity, better of two orientations.

With B2, the binding signal was 9.75 ln median PBM intensity, better of two orientations.

As for B3, the binding signal was 9.8 ln median PBM intensity, better of two orientations.

Take B4: the binding signal was 8.27 ln median PBM intensity, better of two orientations.

Take B5: the binding signal is 8.23 ln median PBM intensity, better of two orientations.

With B6, the binding signal is 8.19 ln median PBM intensity, better of two orientations.

With B7, the binding signal was 7.97 ln median PBM intensity, better of two orientations.

In the case of B8, the binding signal is 9.61 ln median PBM intensity, better of two orientations.

B9: the binding signal was 9.86 ln median PBM intensity, better of two orientations.

For B10, the binding signal was 10.6 ln median PBM intensity, better of two orientations.

In the case of B11, the binding signal is 9.47 ln median PBM intensity, better of two orientations.

On to B12, for which the binding signal was 7.77 ln median PBM intensity, better of two orientations.

On to B13, for which the binding signal was 10.5 ln median PBM intensity, better of two orientations.

Regarding B14, the binding signal was 7.62 ln median PBM intensity, better of two orientations.

As for B15, the binding signal is 9.83 ln median PBM intensity, better of two orientations.

For the molecule B16, the binding signal is 10.3 ln median PBM intensity, better of two orientations.

For B17, the binding signal was 9.55 ln median PBM intensity, better of two orientations.

B18: the binding signal is 9.71 ln median PBM intensity, better of two orientations.

Consider B19, for which the binding signal is 7.89 ln median PBM intensity, better of two orientations.

With B20, the binding signal is 9.66 ln median PBM intensity, better of two orientations.

Turning to B21, the binding signal is 10.3 ln median PBM intensity, better of two orientations.

Consider B22, for which the binding signal is 10.5 ln median PBM intensity, better of two orientations.

Consider B23, for which the binding signal was 9.52 ln median PBM intensity, better of two orientations.

In the case of B24, the binding signal was 10.1 ln median PBM intensity, better of two orientations.

Consider B25, for which the binding signal is 9.77 ln median PBM intensity, better of two orientations.

For B26, the binding signal was 7.84 ln median PBM intensity, better of two orientations.

As for B27, the binding signal was 10 ln median PBM intensity, better of two orientations.

Take B28: the binding signal is 9.68 ln median PBM intensity, better of two orientations.

For B29, the binding signal was 8.03 ln median PBM intensity, better of two orientations.

As to B30, the binding signal was 10.2 ln median PBM intensity, better of two orientations.

For the molecule B31, the binding signal was 10.1 ln median PBM intensity, better of two orientations.

On to B32, for which the binding signal was 9.59 ln median PBM intensity, better of two orientations.

For the molecule B33, the binding signal is 9.65 ln median PBM intensity, better of two orientations.

With B34, the binding signal is 9.49 ln median PBM intensity, better of two orientations.

On to B35, for which the binding signal is 8.08 ln median PBM intensity, better of two orientations.

For the molecule B36, the binding signal is 9.48 ln median PBM intensity, better of two orientations.

In the case of B37, the binding signal is 10.6 ln median PBM intensity, better of two orientations.

Turning to B38, the binding signal is 10.4 ln median PBM intensity, better of two orientations.

With B39, the binding signal was 9.91 ln median PBM intensity, better of two orientations.

Turning to B40, the binding signal is 9.95 ln median PBM intensity, better of two orientations.

Turning to B41, the binding signal is 9.67 ln median PBM intensity, better of two orientations.
